In the supplement of paper PMC10065799, “High-throughput profiling of sequence recognition by tyrosine kinases and SH2 domains using bacterial peptide display” (eLife, 2023):

How the values were obtained:
[1] = tested on: AncSZ; assay: phosphorylation enrichment, bacterial display (enrichment ratio); higher = better substrate or ligand; peptides without Tyr show the background
[2] = molecular target: EPHB1 (UniProt P54762); assay: as above
[3] = molecular target: EPHB2 (UniProt P29323); assay: as above
[4] = molecular target: FGFR1 (UniProt P11362); assay: as above
[5] = molecular target: FGFR3 (UniProt P22607); assay: as above
[6] = tested on: Fer (mouse); assay: as above
[7] = molecular target: Fes (UniProt P07332); assay: as above
[8] = molecular target: Fyn (UniProt P06241); assay: as above
[9] = molecular target: Hck (UniProt P08631); assay: as above
[10] = molecular target: Jak2 (UniProt O60674); assay: as above
[11] = molecular target: MERTK (UniProt Q12866); assay: as above
[12] = tested on: c-Abl (mouse); assay: as above
[13] = tested on: c-Src; assay: as above
[14] = molecular target: Grb2 SH2 (UniProt P62993); assay: SH2 binding enrichment of the phosphorylated peptide, bacterial display (enrichment ratio); higher = better substrate or ligand; peptides without Tyr show the background
[15] = molecular target: SHP2-C SH2; assay: as above
[16] = molecular target: c-Src SH2; assay: as above
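Throughout, for SH2 binding enrichment of the phosphorylated peptide, bacterial display: peptide library displayed on the E. coli surface as eCPX fusions, selected cells deep-sequenced, score is each peptide's frequency after selection divided by its frequency in the input.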
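Throughout, for phosphorylation enrichment, bacterial display: 11-residue human phosphosite peptides and single-mutation variants displayed on the E. coli surface, counted by deep sequencing, each peptide's frequency after selection divided by its frequency in the unselected input library; frequency after pTyr selection over input frequency; kinase dosed for 20-30% of maximal phosphorylation in three min.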

Chain of EPHB2 (P29323 whole entry, looked up): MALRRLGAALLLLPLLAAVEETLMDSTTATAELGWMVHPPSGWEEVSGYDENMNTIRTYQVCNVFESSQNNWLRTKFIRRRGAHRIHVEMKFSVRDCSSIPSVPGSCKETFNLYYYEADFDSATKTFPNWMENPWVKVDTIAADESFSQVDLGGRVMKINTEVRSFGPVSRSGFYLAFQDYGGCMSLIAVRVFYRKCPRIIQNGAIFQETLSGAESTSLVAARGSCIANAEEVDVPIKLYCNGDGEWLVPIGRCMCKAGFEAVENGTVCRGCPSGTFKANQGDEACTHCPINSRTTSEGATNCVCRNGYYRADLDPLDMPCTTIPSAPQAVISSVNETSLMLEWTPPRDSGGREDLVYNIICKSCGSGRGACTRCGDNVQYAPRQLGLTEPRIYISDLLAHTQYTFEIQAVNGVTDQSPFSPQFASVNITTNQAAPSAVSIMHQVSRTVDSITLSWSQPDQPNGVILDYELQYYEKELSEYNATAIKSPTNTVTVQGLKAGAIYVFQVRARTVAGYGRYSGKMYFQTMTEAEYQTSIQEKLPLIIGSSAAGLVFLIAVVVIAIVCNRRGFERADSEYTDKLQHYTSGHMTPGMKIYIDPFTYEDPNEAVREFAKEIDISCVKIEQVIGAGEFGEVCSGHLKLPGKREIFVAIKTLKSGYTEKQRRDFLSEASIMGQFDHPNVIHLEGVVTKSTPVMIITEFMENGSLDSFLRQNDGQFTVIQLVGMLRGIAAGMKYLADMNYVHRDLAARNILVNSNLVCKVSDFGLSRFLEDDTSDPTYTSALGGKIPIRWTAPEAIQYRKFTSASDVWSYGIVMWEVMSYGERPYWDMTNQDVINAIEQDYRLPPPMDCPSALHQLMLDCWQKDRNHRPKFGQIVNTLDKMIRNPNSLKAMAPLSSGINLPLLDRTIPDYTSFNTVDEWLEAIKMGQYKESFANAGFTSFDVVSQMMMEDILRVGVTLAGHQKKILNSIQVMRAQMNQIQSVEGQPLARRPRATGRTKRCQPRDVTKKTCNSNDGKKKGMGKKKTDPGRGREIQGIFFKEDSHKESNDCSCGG
Chain of FGFR1 (P11362 whole entry, looked up): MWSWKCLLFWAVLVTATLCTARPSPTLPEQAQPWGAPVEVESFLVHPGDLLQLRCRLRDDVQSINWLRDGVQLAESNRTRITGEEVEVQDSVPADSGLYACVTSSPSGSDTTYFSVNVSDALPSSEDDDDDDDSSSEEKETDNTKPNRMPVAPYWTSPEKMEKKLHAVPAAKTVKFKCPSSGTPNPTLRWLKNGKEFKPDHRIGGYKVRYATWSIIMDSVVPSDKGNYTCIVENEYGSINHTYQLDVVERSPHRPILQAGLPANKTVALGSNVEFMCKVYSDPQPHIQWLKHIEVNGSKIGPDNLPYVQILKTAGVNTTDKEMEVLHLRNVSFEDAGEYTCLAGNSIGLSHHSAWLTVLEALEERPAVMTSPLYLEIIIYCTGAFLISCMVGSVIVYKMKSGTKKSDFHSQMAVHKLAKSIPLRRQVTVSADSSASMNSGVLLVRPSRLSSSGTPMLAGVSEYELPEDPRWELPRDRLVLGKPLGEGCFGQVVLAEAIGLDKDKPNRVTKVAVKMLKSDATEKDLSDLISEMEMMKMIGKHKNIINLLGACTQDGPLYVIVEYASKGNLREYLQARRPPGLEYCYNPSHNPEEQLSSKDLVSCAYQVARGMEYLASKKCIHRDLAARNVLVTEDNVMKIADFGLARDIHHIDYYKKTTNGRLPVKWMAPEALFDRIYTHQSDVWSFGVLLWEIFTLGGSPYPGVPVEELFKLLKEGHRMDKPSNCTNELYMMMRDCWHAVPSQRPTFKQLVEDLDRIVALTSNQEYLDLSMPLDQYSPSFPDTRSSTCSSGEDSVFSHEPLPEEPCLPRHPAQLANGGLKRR
Chain of FGFR3 (P22607 whole entry, looked up): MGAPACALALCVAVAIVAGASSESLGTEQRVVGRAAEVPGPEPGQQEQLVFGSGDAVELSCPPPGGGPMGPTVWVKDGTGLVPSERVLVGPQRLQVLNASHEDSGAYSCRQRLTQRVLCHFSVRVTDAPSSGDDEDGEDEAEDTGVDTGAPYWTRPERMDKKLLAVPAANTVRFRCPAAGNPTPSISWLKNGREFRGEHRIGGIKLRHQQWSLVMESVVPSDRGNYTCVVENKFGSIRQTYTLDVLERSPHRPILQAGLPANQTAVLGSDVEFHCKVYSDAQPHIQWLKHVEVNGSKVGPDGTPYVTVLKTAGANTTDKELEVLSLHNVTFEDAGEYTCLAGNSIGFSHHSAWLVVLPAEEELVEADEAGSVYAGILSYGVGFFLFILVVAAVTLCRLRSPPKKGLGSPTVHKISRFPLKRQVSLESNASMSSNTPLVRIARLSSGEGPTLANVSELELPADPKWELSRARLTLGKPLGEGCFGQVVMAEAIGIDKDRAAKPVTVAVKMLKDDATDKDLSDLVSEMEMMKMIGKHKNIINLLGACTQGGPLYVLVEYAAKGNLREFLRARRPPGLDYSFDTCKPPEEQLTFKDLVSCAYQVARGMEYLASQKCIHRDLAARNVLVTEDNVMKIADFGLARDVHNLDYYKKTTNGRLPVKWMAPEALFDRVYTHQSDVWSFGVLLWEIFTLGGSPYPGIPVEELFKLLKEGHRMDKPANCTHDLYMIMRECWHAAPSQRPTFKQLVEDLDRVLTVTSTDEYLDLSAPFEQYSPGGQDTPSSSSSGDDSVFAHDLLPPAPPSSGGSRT
Chain of EPHB1 (P54762 whole entry, looked up): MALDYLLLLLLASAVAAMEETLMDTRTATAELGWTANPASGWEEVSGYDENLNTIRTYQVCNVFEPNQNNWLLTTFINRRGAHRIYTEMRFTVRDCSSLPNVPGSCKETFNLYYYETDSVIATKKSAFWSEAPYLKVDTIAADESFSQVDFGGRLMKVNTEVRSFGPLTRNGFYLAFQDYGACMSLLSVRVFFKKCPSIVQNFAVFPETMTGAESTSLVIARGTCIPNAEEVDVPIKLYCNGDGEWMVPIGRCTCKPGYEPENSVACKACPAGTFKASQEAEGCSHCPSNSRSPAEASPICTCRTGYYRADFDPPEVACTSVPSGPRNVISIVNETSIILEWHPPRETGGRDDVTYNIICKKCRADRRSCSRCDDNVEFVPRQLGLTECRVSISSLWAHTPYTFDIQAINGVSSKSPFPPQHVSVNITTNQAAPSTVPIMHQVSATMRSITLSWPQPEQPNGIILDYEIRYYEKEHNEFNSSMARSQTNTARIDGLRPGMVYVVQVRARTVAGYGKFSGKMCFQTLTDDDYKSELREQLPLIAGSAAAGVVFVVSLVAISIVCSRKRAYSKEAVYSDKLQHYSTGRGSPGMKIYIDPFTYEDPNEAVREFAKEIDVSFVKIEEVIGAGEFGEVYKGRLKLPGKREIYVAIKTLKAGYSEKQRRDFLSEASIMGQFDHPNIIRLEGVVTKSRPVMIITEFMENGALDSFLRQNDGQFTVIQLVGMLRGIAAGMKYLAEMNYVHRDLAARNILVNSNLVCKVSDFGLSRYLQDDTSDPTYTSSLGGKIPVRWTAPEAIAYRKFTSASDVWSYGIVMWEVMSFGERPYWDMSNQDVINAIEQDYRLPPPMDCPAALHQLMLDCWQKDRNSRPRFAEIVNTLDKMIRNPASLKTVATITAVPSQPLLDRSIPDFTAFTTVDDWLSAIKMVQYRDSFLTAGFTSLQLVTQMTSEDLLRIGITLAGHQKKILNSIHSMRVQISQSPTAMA
Chain of Jak2 (O60674 whole entry, looked up): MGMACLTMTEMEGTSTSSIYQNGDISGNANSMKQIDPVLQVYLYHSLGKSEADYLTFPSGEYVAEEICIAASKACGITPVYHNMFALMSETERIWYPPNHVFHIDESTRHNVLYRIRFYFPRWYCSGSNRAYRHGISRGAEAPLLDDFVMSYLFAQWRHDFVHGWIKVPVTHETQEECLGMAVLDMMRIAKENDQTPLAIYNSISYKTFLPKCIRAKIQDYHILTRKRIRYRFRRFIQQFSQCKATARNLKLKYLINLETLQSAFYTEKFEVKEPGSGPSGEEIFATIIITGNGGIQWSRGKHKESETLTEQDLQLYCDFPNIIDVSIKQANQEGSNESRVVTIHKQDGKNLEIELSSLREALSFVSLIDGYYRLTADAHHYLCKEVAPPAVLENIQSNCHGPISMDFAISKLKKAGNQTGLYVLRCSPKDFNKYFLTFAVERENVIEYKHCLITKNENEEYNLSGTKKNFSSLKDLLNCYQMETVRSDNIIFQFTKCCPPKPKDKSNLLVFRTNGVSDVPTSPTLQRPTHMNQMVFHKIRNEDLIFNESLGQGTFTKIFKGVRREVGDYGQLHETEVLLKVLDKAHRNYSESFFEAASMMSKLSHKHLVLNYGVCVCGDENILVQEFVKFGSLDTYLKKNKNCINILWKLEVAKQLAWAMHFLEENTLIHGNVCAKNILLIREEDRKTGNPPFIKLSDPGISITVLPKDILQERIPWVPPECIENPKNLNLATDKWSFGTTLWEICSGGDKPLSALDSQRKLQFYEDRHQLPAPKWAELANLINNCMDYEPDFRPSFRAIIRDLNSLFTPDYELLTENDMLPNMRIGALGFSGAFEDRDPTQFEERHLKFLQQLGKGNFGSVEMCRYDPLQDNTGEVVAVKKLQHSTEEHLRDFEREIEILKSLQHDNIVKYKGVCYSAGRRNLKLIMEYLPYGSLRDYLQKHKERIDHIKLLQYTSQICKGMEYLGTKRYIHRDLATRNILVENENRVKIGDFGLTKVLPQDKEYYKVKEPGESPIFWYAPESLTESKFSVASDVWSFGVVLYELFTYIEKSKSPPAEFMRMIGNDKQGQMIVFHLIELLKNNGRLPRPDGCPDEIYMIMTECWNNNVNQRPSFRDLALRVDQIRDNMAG

SH2 binding enrichment [14]	SH2 binding enrichment [15]	SH2 binding enrichment [16]	Sequence	phosphorylation enrichment [1]	phosphorylation enrichment [2]	phosphorylation enrichment [3]	phosphorylation enrichment [4]	phosphorylation enrichment [5]	phosphorylation enrichment [6]	phosphorylation enrichment [7]	phosphorylation enrichment [8]	phosphorylation enrichment [9]	phosphorylation enrichment [10]	phosphorylation enrichment [11]	phosphorylation enrichment [12]	phosphorylation enrichment [13]
0.871	1.16	0.555	HNVPICEGFAL [ACTC1_Y168_Y168C_YF]	1.1	0.729	0.704	0.849	0.947	0.59	1.29	0.75	0.708	1.15	0.673	1.06	0.621
0.858	0.502	0.464	GIVKAYYVRAR [AIPL1_Y267]	1.03	0.398	0.47	0.461	0.548	0.407	0.771	0.394	0.396	0.706	0.465	0.558	0.415
1.14	1.24	0.957	LLKKMYLMLDN [STAT1_Y203]	0.883	0.571	0.381	0.395	0.721	0.521	0.996	0.38	0.434	0.939	0.401	0.643	0.305
0.731	0.8	0.509	ILKPDYQPLAV [HYDIN_Y1072_I1077V]	0.817	0.409	0.42	0.475	0.667	0.387	0.828	0.48	0.456	0.617	0.448	0.73	0.418
0.783	0.844	1.17	LNLKEYNLVGG [GNAQ_Y356]	1.23	0.307	0.411	0.357	0.698	0.685	0.867	0.529	0.485	0.793	0.424	0.709	0.561
0.664	0.809	0.431	EQKKYYNAMKN [SCN5A_Y1495_K1500N]	0.507	0.388	0.335	0.336	0.382	0.354	0.536	0.292	0.405	0.489	0.356	0.489	0.359
0.811	0.472	0.39	PECEWYKNGVK [TTN_Y2112]	1.55	0.759	1.05	0.821	1.19	0.719	1.96	0.692	0.73	1.32	0.532	1.31	0.555
1.94	1.95	1.23	RLLVVFPWTQR [HBB_Y36_Y36F]	2.13	0.574	0.766	0.67	1.08	0.608	1.73	0.545	0.829	1.59	0.784	1.11	0.584
0.639	0.6	0.531	HSQEDYFECFQ [ZIM2_Y411]	3.08	2.03	1.2	10.2	8.51	0.614	1.82	0.669	0.623	1.25	0.624	0.902	0.79
0.653	0.477	0.465	ADARMYGVHPW [PLP1_Y207_L210H]	0.604	0.458	0.493	0.38	0.481	0.355	0.726	4.81	2.42	0.521	0.391	0.53	3.64
0.877	0.648	0.401	ILGLEYSLRLP [HELZ2_Y1304_V1308L]	1.37	0.814	0.56	0.542	0.942	0.649	1.44	0.628	0.479	1.33	0.5	0.937	1.08
1.04	1.35	0.799	CLMILHRLKER [PTPRR_Y249_Y249H]	1.05	0.496	0.569	0.436	0.575	0.516	1.19	0.464	0.426	1.03	0.437	0.548	0.395
0.925	0.915	0.824	IRCQGYSHRIL [MYO3B_Y993_R990C]	0.723	0.46	0.558	0.423	0.506	0.47	0.664	0.493	0.475	0.649	0.471	0.493	0.523
0.755	0.638	0.625	PDSVDYRKKGF [CTSK_Y121_YF]	0.524	0.468	0.646	0.402	0.88	0.521	0.536	0.32	0.55	0.49	0.368	0.391	0.366
0.823	0.818	5.09	LGIDRYHAIVY [NPSR1_Y147_S143G]	0.717	0.443	0.523	2.82	1.84	0.408	0.814	0.442	0.683	0.775	0.446	0.437	0.621
1.28	1.32	0.953	DSFATYFRWVL [H2BW1_Y84_R87W]	1.53	1.85	3.54	1.98	1.98	2.46	1.47	2.76	5.6	5.48	4.5	1.04	3.21
0.853	1.21	0.369	QKNVSYVSRVS [TASOR_Y1043_T1046R]	1.2	0.683	0.564	0.782	0.894	0.764	0.739	0.438	0.477	0.69	0.537	0.547	0.457

SH2 binding enrichment [14]	SH2 binding enrichment [15]	SH2 binding enrichment [16]	Sequence	phosphorylation enrichment [1]	phosphorylation enrichment [2]	phosphorylation enrichment [3]	phosphorylation enrichment [4]	phosphorylation enrichment [5]	phosphorylation enrichment [6]	phosphorylation enrichment [7]	phosphorylation enrichment [8]	phosphorylation enrichment [9]	phosphorylation enrichment [10]	phosphorylation enrichment [11]	phosphorylation enrichment [12]	phosphorylation enrichment [13]
0.735	0.612	0.522	NQELIYEGRRL [TBK1_Y354]	0.755	0.518	0.668	0.472	0.808	8.54	0.763	8.61	9.83	0.581	0.581	5	7.87
0.877	0.772	0.583	AAVDNYCRHNF [HLA-DRB1_Y107_T106N_YF]	0.41	0.753	0.234	0.442	1.33	0.471	0.53	0.587	0.203	0.928	0.326	0.484	0.349
0.915	0.442	0.773	IYETDYYQKGG [INSR_Y1189_R1191Q]	1.88	1.2	0.948	1.52	1.46	1.6	1.08	1.46	1.37	0.819	4.71	0.629	1.37
1.05	0.808	0.712	GGGFGYQKTKK [DDX18_Y643]	0.328	0.252	0.318	0.371	0.422	0.343	0.52	0.315	0.379	0.814	0.308	0.556	0.3
1.24	1.52	1.18	CSRCFYQLTKL [AR_Y858_R856C]	0.864	0.45	0.459	0.601	0.587	1.85	0.904	0.429	0.362	0.728	0.55	0.564	1.14
1.02	1.21	0.654	QMVGKYASSYM [AVPR2_Y124_M123K]	0.626	0.336	0.401	0.29	0.452	0.266	0.736	0.529	0.379	0.717	0.475	0.786	0.459
1.38	1.33	1.27	KGELRYMHSRV [ABCD1_Y281]	0.568	0.396	0.348	0.428	0.44	0.375	0.746	0.303	0.377	0.618	0.378	0.517	0.48
1.18	1.01	0.735	FGHTFYNQAIM [MCCC2_Y196_R193H]	0.715	0.404	0.447	0.555	0.556	0.461	0.945	0.465	0.41	0.856	0.445	0.527	0.455
0.975	1.08	0.756	CTTIHYNFMFN [TP53_Y234_C238F_YF]	1.27	0.786	0.684	0.676	0.945	0.789	1.61	0.52	0.569	1.34	0.595	1.04	0.586
0.861	0.784	0.541	QLCVSYPGGYT [PROS1_Y259_N258S]	1.03	0.588	0.719	0.592	0.665	0.591	0.888	0.597	0.416	0.862	0.402	0.683	0.4
0.791	0.763	0.545	SSNLYYRWLTA [CNGA3_Y169]	1.04	1.52	1.91	6.93	6.24	1.98	0.897	2	4.9	4.69	8.61	3.22	2.87
0.849	0.623	0.558	FADGVYLALEE [DUOX2_Y70_Q71L_YF]	1.63	1.19	0.991	0.881	1.02	0.584	1.04	2.15	1.51	0.968	0.641	0.647	2.47
0.569	0.638	0.397	SVTCTYSPALY [TP53_Y126_N131Y]	1.76	0.808	0.786	0.523	0.929	0.695	1.71	1.27	0.932	1.33	0.495	0.91	1.21
1.04	0.738	0.456	MAQDIYRASFF [ALK_Y1278_R1275Q_YF]	0.683	0.353	0.499	0.462	0.482	0.446	0.69	1.52	2.06	0.711	0.66	12.2	2.28
0.705	0.476	0.465	FRARAYGFRGP [CHGA_Y381]	0.839	0.472	0.506	0.497	0.427	0.532	0.747	0.676	0.569	0.686	0.748	0.658	0.651
1.22	0.917	0.768	RALLNYIASKY [GSTA3_Y74_I71L]	0.611	0.551	0.521	0.343	0.798	0.47	0.959	0.678	0.553	0.8	0.509	0.578	0.381
